According to US20130287807A1, “COMPOUNDS FOR TREATING SYMPTOMS ASSOCIATED WITH PARKINSON'S DISEASE” (priority 2008, published 2013):
Blank lines part the entries; values can stand above or below the molecule they belong to.

Key:
[1] = tested on: monoclonal antibody MV-001; experiment: In vitro inhibition assay (ELISA), MV-001 binding to original epitope; parameters: species or system C57/B16 mice; conditions: Table 2C; OD at 10 ug peptide compared to original peptide
Experimental: Different amounts of peptides (concentrations ranging from 10 μg to 0.08 μg; serial dilutions; for MV-002: concentrations ranging from 5 μg to 0.03 μg; serial dilutions), derived from Phage Display were incubated with the monoclonal antibody that was used for the screening procedure. Peptides diminishing subsequent binding of the antibody to the original epitope coated on ELISA plates were considered as inhibiting in this assay.
Legend to Table 2C: the inhibition capacity is coded by the following code: Weak inhibition means more peptide is required to lower AB binding than with the original epitope; strong inhibition means similar peptide amounts are required for mimotope and original epitope for lowering AB binding. Mimotopes are compared to the original peptide as standard. OD at 10 ug peptide used in the assay is used to calculate the competition capacity compared to original peptide.

[2] = tested on: monoclonal antibody MV-001; experiment: In vitro binding assay (ELISA), BSA-coupled peptides, parental antibody MV-001; parameters: species or system C57/B16 mice; conditions: Table 1C; peptide-BSA on plate, compared to original epitope
Experimental: Peptides derived from Phage Display as well as variants thereof were coupled to BSA and bound to ELISA plates (1 μM; as indicated in the respective figures) and subsequently incubated with the monoclonal antibody that was used for the screening procedure to analyse binding capacity of identified peptides.
Legend to Table 1C: the binding capacity is coded by the following binding code: 1:X describes the dilution factor of the parental AB

[3] = biological target: monoclonal antibody MV-002; experiment: ELISA on peptide-BSA; code 3 = strong binding, OD halfmax 1:>320000
[4] = biological target: monoclonal antibody MV-001; experiment: ELISA on peptide-BSA; code 2 = medium binding, OD halfmax 1:4000-20000

- Binding Capacity [2]: 3 (strong binding :>20000)
Molecule: DGLLFKHC [p4741]
- Inhibition Capacity [1]: 1 (Weaker than original epitope (OD of 10 ug peptide below 3 times of original peptide))

- Binding Capacity [2]: 3 (strong binding :>20000)
Molecule: CSEFKH [p4800]
- Inhibition Capacity [1]: 2 (strong inhibition (as original epitope; OD of 10 ug peptide below 2 times of original peptide))

- Binding Capacity [2]: 2 (medium binding :4000-20000)
Molecule: LPFRHGC [p4388]
- Inhibition Capacity [1]: 1 (Weaker than original epitope (OD of 10 ug peptide below 3 times of original peptide))

- Binding Capacity [2]: 2 (medium binding :4000-20000)
Molecule: TSFRHGC [p4382]
- Inhibition Capacity [1]: 1 (Weaker than original epitope (OD of 10 ug peptide below 3 times of original peptide))

- Binding Capacity [2]: 3 (strong binding :>20000)
Molecule: HEFRHC [p4803]
- Inhibition Capacity [1]: 2 (strong inhibition (as original epitope; OD of 10 ug peptide below 2 times of original peptide))

- Binding Capacity [2]: 2 (medium binding :4000-20000)
Molecule: SAFRHHC [p4387]
- Inhibition Capacity [1]: 1 (Weaker than original epitope (OD of 10 ug peptide below 3 times of original peptide))

- Binding Capacity [2]: 3 (strong binding :>20000)
Molecule: CHEFRH [p4802]
- Inhibition Capacity [1]: 2 (strong inhibition (as original epitope; OD of 10 ug peptide below 2 times of original peptide))

- Binding Capacity [2]: 2 (medium binding :4000-20000)
Molecule: QFKHDLC [p4391]
- Inhibition Capacity [1]: 1 (Weaker than original epitope (OD of 10 ug peptide below 3 times of original peptide))

- Binding Capacity [2]: 3 (strong binding :>20000)
Molecule: EELRHSVC [p4746]
- Inhibition Capacity [1]: 1 (Weaker than original epitope (OD of 10 ug peptide below 3 times of original peptide))

- Binding Capacity [2]: 2 (medium binding :4000-20000)
Molecule: QDFRHYC [p4380]
- Inhibition Capacity [1]: 1 (Weaker than original epitope (OD of 10 ug peptide below 3 times of original peptide))

- Binding Capacity [2]: 3 (strong binding :>20000)
Molecule: SEFKHC [p4801]
- Inhibition Capacity [1]: 1 (Weaker than original epitope (OD of 10 ug peptide below 3 times of original peptide))

- Binding Capacity [2]: 2 (medium binding :4000-20000)
Molecule: SHFRHGC [p4389]
- Inhibition Capacity [1]: 1 (Weaker than original epitope (OD of 10 ug peptide below 3 times of original peptide))

- OD halfmax dilution factor of the parental antibody (1:X) (dilutionfactor(1:x)) [3]: > 320000
Molecule: GQIKFAQC [p4694]

- OD halfmax dilution factor of the parental antibody (1:X) (dilutionfactor(1:x)) [3]: > 320000
Molecule: GQILFPVC [p4684]

- OD halfmax dilution factor of the parental antibody (1:X) (dilutionfactor(1:x)) [3]: > 320000
Molecule: GEIRFGSC [p4696]

- OD halfmax dilution factor of the parental antibody (1:X) (dilutionfactor(1:x)) [3]: > 320000
Molecule: HMRLFFNC [p4670]

- OD halfmax dilution factor of the parental antibody (1:X) (dilutionfactor(1:x)) [3]: > 320000
Molecule: GDLKFPLC [p4683]

- OD halfmax 1:X (dilution factor of the parental antibody at half-maximal OD) (dilutionfactor(1:x)) [4]: 4000 to 20000
Molecule: ATFRHSTC [p4735]

- OD halfmax 1:X (dilution factor of the parental antibody at half-maximal OD) (dilutionfactor(1:x)) [4]: 4000 to 20000
Molecule: NELFKHFC [p4727]

- OD halfmax 1:X (dilution factor of the parental antibody at half-maximal OD) (dilutionfactor(1:x)) [4]: 4000 to 20000
Molecule: LQFKHSTC [p4734]

- OD halfmax dilution factor of the parental antibody (1:X) (dilutionfactor(1:x)) [3]: > 320000
Molecule: THQRLWFC [p4693]

- OD halfmax dilution factor of the parental antibody (1:X) (dilutionfactor(1:x)) [3]: > 320000
Molecule: HQKMIFAC [p4675]

- OD halfmax 1:X (dilution factor of the parental antibody at half-maximal OD) (dilutionfactor(1:x)) [4]: 4000 to 20000
Molecule: SAMRHSLC [p4732]

- OD halfmax dilution factor of the parental antibody (1:X) (dilutionfactor(1:x)) [3]: > 320000
Molecule: GQLKFPFC [p4690]

- OD halfmax dilution factor of the parental antibody (1:X) (dilutionfactor(1:x)) [3]: > 320000
Molecule: GEIYFERC [p4681]

- OD halfmax dilution factor of the parental antibody (1:X) (dilutionfactor(1:x)) [3]: > 320000
Molecule: GEMQFFIC [p4676]

- OD halfmax 1:X (dilution factor of the parental antibody at half-maximal OD) (dilutionfactor(1:x)) [4]: 4000 to 20000
Molecule: SQYFPRPC [p4729]

- OD halfmax dilution factor of the parental antibody (1:X) (dilutionfactor(1:x)) [3]: > 320000
Molecule: SHQRLWFC [p4674]

- OD halfmax dilution factor of the parental antibody (1:X) (dilutionfactor(1:x)) [3]: > 320000
Molecule: GELWFPC [p4673]

- OD halfmax dilution factor of the parental antibody (1:X) (dilutionfactor(1:x)) [3]: > 320000
Molecule: GEILFGMC [p4689]

- OD halfmax dilution factor of the parental antibody (1:X) (dilutionfactor(1:x)) [3]: > 320000
Molecule: GELFFPKC [p4685]

- OD halfmax dilution factor of the parental antibody (1:X) (dilutionfactor(1:x)) [3]: > 320000
Molecule: GEIWFEGC [p4680]

- OD halfmax dilution factor of the parental antibody (1:X) (dilutionfactor(1:x)) [3]: > 320000
Molecule: GEIRFALC [p4678]

- OD halfmax 1:X (dilution factor of the parental antibody at half-maximal OD) (dilutionfactor(1:x)) [4]: 4000 to 20000
Molecule: TYFSHSLC [p4718]

- OD halfmax 1:X (dilution factor of the parental antibody at half-maximal OD) (dilutionfactor(1:x)) [4]: 4000 to 20000
Molecule: TGLMFKHC [p4736]

- OD halfmax dilution factor of the parental antibody (1:X) (dilutionfactor(1:x)) [3]: > 320000
Molecule: GELYFRAC [p4677]

- OD halfmax dilution factor of the parental antibody (1:X) (dilutionfactor(1:x)) [3]: > 320000
Molecule: GEMWFALC [p4671]

- OD halfmax dilution factor of the parental antibody (1:X) (dilutionfactor(1:x)) [3]: > 320000
Molecule: GEIKFDHC [p4698]

- OD halfmax 1:X (dilution factor of the parental antibody at half-maximal OD) (dilutionfactor(1:x)) [4]: 4000 to 20000
Molecule: AYFPHTSC [p4751]

- OD halfmax dilution factor of the parental antibody (1:X) (dilutionfactor(1:x)) [3]: > 320000
Molecule: GQIRFDHC [p4669]

- OD halfmax 1:X (dilution factor of the parental antibody at half-maximal OD) (dilutionfactor(1:x)) [4]: 4000 to 20000
Molecule: SLMRHSSC [p4721]

- OD halfmax 1:X (dilution factor of the parental antibody at half-maximal OD) (dilutionfactor(1:x)) [4]: 4000 to 20000
Molecule: IGFRHDSC [p4742]

- OD halfmax dilution factor of the parental antibody (1:X) (dilutionfactor(1:x)) [3]: > 320000
Molecule: GELQFPPC [p4672]

- OD halfmax 1:X (dilution factor of the parental antibody at half-maximal OD) (dilutionfactor(1:x)) [4]: 4000 to 20000
Molecule: APMYFPHC [p4717]

- OD halfmax dilution factor of the parental antibody (1:X) (dilutionfactor(1:x)) [3]: > 320000
Molecule: NDAKIVFC [p4667]

- OD halfmax dilution factor of the parental antibody (1:X) (dilutionfactor(1:x)) [3]: > 320000
Molecule: GQIQFPLC [p4697]

- OD halfmax dilution factor of the parental antibody (1:X) (dilutionfactor(1:x)) [3]: > 320000
Molecule: GQIMFPRC [p4686]

- OD halfmax 1:X (dilution factor of the parental antibody at half-maximal OD) (dilutionfactor(1:x)) [4]: 4000 to 20000
Molecule: AEFMHSVC [p4739]

- OD halfmax 1:X (dilution factor of the parental antibody at half-maximal OD) (dilutionfactor(1:x)) [4]: 4000 to 20000
Molecule: QVMRHHAC [p4711]

- OD halfmax dilution factor of the parental antibody (1:X) (dilutionfactor(1:x)) [3]: > 320000
Molecule: GMIVFPHC [p4679]

- OD halfmax dilution factor of the parental antibody (1:X) (dilutionfactor(1:x)) [3]: > 320000
Molecule: HMRMYFEC [p4687]

- OD halfmax dilution factor of the parental antibody (1:X) (dilutionfactor(1:x)) [3]: > 320000
Molecule: GEIQFGAC [p4699]

- OD halfmax 1:X (dilution factor of the parental antibody at half-maximal OD) (dilutionfactor(1:x)) [4]: 4000 to 20000
Molecule: ATFRHSPC [p4716]

- OD halfmax 1:X (dilution factor of the parental antibody at half-maximal OD) (dilutionfactor(1:x)) [4]: 4000 to 20000
Molecule: MLPFRHGC [p4731]

- OD halfmax 1:X (dilution factor of the parental antibody at half-maximal OD) (dilutionfactor(1:x)) [4]: 4000 to 20000
Molecule: AEFSHWHC [p4737]
